Measured values published in patent publication US7056679 (ANTYRA, dated 2006).

What was measured:
DGI-2 polypeptide [1] = target: T1, DGI-2 polypeptide (UniProt Q15004 1-111, limits assumed); assay: phage ELISA, 405 nm; DGI-2 coated
T1 construct: Vector-derived residues or tag of pIVEX2.3 are not described for this construct; also called KIAA0101
T1 sequence (looked up): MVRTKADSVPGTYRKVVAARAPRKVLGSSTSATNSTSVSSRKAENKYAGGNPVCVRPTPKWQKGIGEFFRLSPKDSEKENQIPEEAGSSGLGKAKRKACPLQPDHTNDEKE
Method: (§1) For analysis of individual target binders, colonies were picked and phage prepared as described above using helper phage, M13KO7. Ninety-six-well microtiter plates were coated with 500 ng/well of specific target protein, 500 ng/well lactate dehydrogenase (LDH) irrelevant or non-specific target, 500 ng/well of positive control antibody raised against ETAG, and negative control of non-fat milk powder-PBS 2% at 4° C. overnight. Plates were then blocked with 350 microliters/well PBS containing 2% non-fat milk for 1 hr at room temperature. One hundred microliters per well of phage from isolated clones were added and plates were incubated at room temperature for 2 hr after centrifuging samples for 20 minutes at 3500 rpm at 4° C. The phage solution was then removed, and the wells were washed three times with PBS at room temperature. Antibody raised against M13 conjugated to horseradish peroxidase (Pharmacia) was diluted 1:3000 in PBS-Tween and added to each well (100 µl/well). Incubation was for 1 hr at room temperature, followed by washing with PBS-(0.5%) Tween 3 times as described. Color was developed by addition of ABTS solution (100 µl/well; Boehringer, Indianapolis, Ind.). Plates were analyzed at 405 nm. A clone was considered "positive" if the $A405$ of the well was $\geq$2-fold over background.

[2] = target: T2, antibody raised against ETAG; assay: phage ELISA, 405 nm; anti-E-tag antibody coated
T2 construct: read-out of display; also called E-tag antibody; E tag antibody
Method: as §1

DGI-2 polypeptide [3] = target: T1, DGI-2 polypeptide; assay: phage ELISA, 405 nm; DGI-2 signal over LDH signal
Method: as §1

Row | Binder | DGI-2 (OD) (DGI-2 polypeptide [1]) | ETAG (OD) [2] | DGI-2/LDH (OD) (DGI-2 polypeptide [3])
1 | MAVLPAARDFGGVVQGGVSGAAAGAPVPYPDPLEPRP (not shown: phage gene III coat protein (pCANTAB5E)) [DGI-2-20F-3-C2] | 1.3 OD | 11.5 OD | 1.3 ratio
2 | PAMGHCMQVLGPVLEGRSRDQVGRAAAGAPVPYPDPLEPRP (not shown: phage gene III coat protein (pCANTAB5E)) [DGI-2-20R-4-G6] | 1.6 OD | 11.5 OD | 1.4 ratio
3 | DGI-2-40F-3-B116 (not shown: phage gene III coat protein (pCANTAB5E)) peptide: GVVRAQQGLRYELQGDRYRLRRTQWLTVTYCSPSWAFAGCAAAGAPVPYPDPLEPRP | 1.7 OD | 6.5 OD | 2 ratio
4 | LSLLSVVVRSMGASAPQRQVAAAGAPVPYPDPLEPRP (not shown: phage gene III coat protein (pCANTAB5E)) [DGI-2-20F-3-A7] | 2.1 OD | 7 OD | 2.4 ratio
5 | LSRIWRGVIESAREVESRGIAAAGAPVPYPDPLEPRP (not shown: phage gene III coat protein (pCANTAB5E)) [DGI-2-20F-3-B1] | 1.2 OD | 11.4 OD | 1.2 ratio
6 | DGI-2-40F-3-B122 (not shown: phage gene III coat protein (pCANTAB5E)) peptide: HSGNRQSGSRRTHLLNIFCSSDTFVFPGWSAYLSRVCPGDAAAGAPVPYPDPLEPRP | 1.7 OD | 11 OD | 2.2 ratio
7 | DGI-2-40F-3-B11 (not shown: phage gene III coat protein (pCANTAB5E)) peptide: LAPMFLQNQVRTWAASRRPLPAGPSNARCETGSLSPWVPCAAAGAPVPYPDPLEPRP | 1.8 OD | 7.9 OD | 2 ratio
8 | FSSVLGLLDRRGVPVVVGEDAAAGAPVPYPDPLEPRP (not shown: phage gene III coat protein (pCANTAB5E)) [DGI-2-20F-3-C3] | 1.1 OD | 11.6 OD | 1.1 ratio
9 | DGI-2-40F-3-D12 (not shown: phage gene III coat protein (pCANTAB5E)) peptide: QGSAHVVRPPGVYDVPWKVGMFFHPQNWPNSWGRAYFRSGAAAGAPVPYPDPLEPRP | 2.3 OD | 7.3 OD | 2.5 ratio
10 | RCFQDGRMLALSPTYLIRRSVSPLVVGPLPTPAAAGAPVPYPDPLEPRP (not shown: phage gene III coat protein (pCANTAB5E)) [DGI-2-40F-3-A24] | 1.3 OD | 11.7 OD | 1.4 ratio
11 | DGI-2-40F-3-C7 (not shown: phage gene III coat protein (pCANTAB5E)) peptide: HPWVTNMLVFQRPPPPGFWLSDTTPRQRNGLGQVERPSVDAAAGAPVPYPDPLEPRP | 1.2 OD | 8.8 OD | 1.5 ratio
12 | LTWGPQFGSLQVYSRHRGLPAAAGAPVPYPDPLEPRP (not shown: phage gene III coat protein (pCANTAB5E)) [DGI-2-20R-4-E4] | 1.6 OD | 18.1 OD | 1.3 ratio
13 | LVIQCSASVVACDLYWNYVGCLAAGAAAGAPVPYPDPLEPRP (not shown: phage gene III coat protein (pCANTAB5E)) [DGI-2-20C-3-D12] | 1.1 OD | 3.6 OD | 1.1 ratio
14 | DGL-2-40F-3-D10 (not shown: phage gene III coat protein (pCANTAB5E)) peptide: TLVTEGNKGSVKAHKDIGVWQLWWDWLSVTDSETVGRVSHAAAGAPVPYPDPLEPRP | 1.5 OD | 10.3 OD | 1.7 ratio
15 | DGI-2-40F-3-D9 (not shown: phage gene III coat protein (pCANTAB5E)) peptide: RRTSADTDQLSRWEGAQAFSSLRSALSERLDSLRPGLPPSAAAGAPVPYPDPLEPRP | 1.1 OD | 15.8 OD | 1.4 ratio
16 | RWSLPAYLCRFVSQASCNSRAAAGAPVPYPDPLEPRP (not shown: phage gene III coat protein (pCANTAB5E)) [DGI-2-20R-3-C12] | 1.6 OD | 14.6 OD | 1.6 ratio
17 | TPDRCLIYSSIQCLLEYSARRGSADAAAGAPVPYPDPLEPRP (not shown: phage gene III coat protein (pCANTAB5E)) [DGI-2-20C-3-C65] | 1.8 OD | 7.4 OD | 1.8 ratio
18 | LSVFRPGQFPHVGARGVSRTAAAGAPVPYPDPLEPRP (not shown: phage gene III coat protein (pCANTAB5E)) [DGI-2-20R-4-G32] | 1.4 OD | 11 OD | 1.2 ratio
19 | TSCQVMFLAGQHLLSRVPRLAAAGAPVPYPDPLEPRP (not shown: phage gene III coat protein (pCANTAB5E)) [DGL-2-20R-3-B6] | 2.8 OD | 11.7 OD | 2.7 ratio

Row | Binder | DGI-2 (OD) (DGI-2 polypeptide [1]) | ETAG (OD) [2] | DGI-2/LDH (OD) (DGI-2 polypeptide [3])
20 | DGI-2-40F-3-D6 (not shown: phage gene III coat protein (pCANTAB5E)) peptide: GLEPVPFQTDKRIAMGWTREWLVNGYGAAHRRDARMQSGHAAAGAPVPYPDPLEPRP | 2.5 OD | 11.4 OD | 2.6 ratio
21 | LSHPMSPLRAASQMALTQGVAAAGAPVPYPDPLEPRP (not shown: phage gene III coat protein (pCANTAB5E)) [DGI-2-20R-4-H7] | 3.1 OD | 14.1 OD | 2.6 ratio
22 | YDQVWNSLLAAVLGGQELVNAAAGAPVPYPDPLEPRP (not shown: phage gene III coat protein (pCANTAB5E)) [DGI-2-20F-3-D112] | 1.4 OD | 19.9 OD | 1.4 ratio
23 | WAGSTDLWQLWSLWVKPELRAAAGAPVPYPDPLEPRP (not shown: phage gene III coat protein (pCANTAB5E)) [DGI-2-20F-3-B7] | 1.6 OD | 16.4 OD | 1.6 ratio
24 | LHRLGQSMGGTLDHLQGWGVAAAGAPVPYPDPLEPRP (not shown: phage gene III coat protein (pCANTAB5E)) [DGI-2-20R-4-E5] | 1.2 OD | 17.9 OD | 1.1 ratio
25 | TANGHRYGGCGLWCKWMSGMAAAGAPVPYPDPLEPRP (not shown: phage gene III coat protein (pCANTAB5E)) [DGI-2-20R-4-E2] | 2.7 OD | 18.2 OD | 2.5 ratio
26 | ACSVGTALVFPQRWWYLGRSAAAGAPVPYPDPLEPRP (not shown: phage gene III coat protein (pCANTAB5E)) [DGL-2-20R-3-D6] | 2.2 OD | 12.9 OD | 2.1 ratio
27 | SLSLYWDAQVGCEVFWGYCVAAAGAPVPYPDPLEPRP (not shown: phage gene III coat protein (pCANTAB5E)) [DGI-2-20R-3-C10] | 2.2 OD | 14.7 OD | 2.1 ratio
28 | GNKCFPPHDLFWDPCDQLQSAAAGAPVPYPDPLEPRP (not shown: phage gene III coat protein (pCANTAB5E)) [DGI-2-20R-4-F6] | 2.3 OD | 13.2 OD | 2.3 ratio
29 | DGI-2-40F-4-F12 (not shown: phage gene III coat protein (pCANTAB5E)) peptide: GLYRRAGDASVGFSRWGRFDCQVYFSVECLLGSSWGGYSAAAGAPVPYPDPLEPRP | 2.2 OD | 8.7 OD | 2.5 ratio
30 | DGI-2-40F-3-D7 (not shown: phage gene III coat protein (pCANTAB5E)) peptide: ALRSLGSGGFGWQAGRASPQGMTHFPYFGWSGMPTARVRPAAAGAPVPYPDPLEPRP | 2.6 OD | 10.3 OD | 2.6 ratio
31 | GLRACDTYLGFCVGARRIDDAAAGAPVPYPDPLEPRP (not shown: phage gene III coat protein (pCANTAB5E)) [DGI-2-20F-3-B102] | 2.4 OD | 18 OD | 2.5 ratio
32 | GMWIRPNGHMFLQGGYTARSAAAGAPVPYPDPLEPRP (not shown: phage gene III coat protein (pCANTAB5E)) [DGI-2-20R-4-G8] | 1.5 OD | 14.5 OD | 1.4 ratio
33 | RFWSVSYQGGRVMCREWGYCLPIAAAGAPVPYPDPLEPRP (not shown: phage gene III coat protein (pCANTAB5E)) [DGI-2-40F-3-C92] | 2.1 OD | 9.8 OD | 2.6 ratio
34 | DGI-2-40F-3-B10 (not shown: phage gene III coat protein (pCANTAB5E)) peptide: MQAASTLSTYMGAIRMGYPILHWDRGGVQRVDPGLYRGRVAAAGAPVPYPDPLEPRP | 1.3 OD | 4.8 OD | 1.4 ratio
35 | DGI-2-40F-3-C6 (not shown: phage gene III coat protein (pCANTAB5E)) peptide: QMFSKGNWLAHPEGGVALGLSRESQLFRSCREFGYCMGPMAAAGAPVPYPDPLEPRP | 2.3 OD | 10.1 OD | 2.8 ratio
36 | FSSTGILLRSGRATAVGHVTAAAGAPVPYPDPLEPRP (not shown: phage gene III coat protein (pCANTAB5E)) [DGI-2-20F-3-A6] | 1.5 OD | 13.2 OD | 1.4 ratio
37 | VAFGEQIRVAMAGTLWQRWRAAAGAPVPYPDPLEPRP (not shown: phage gene III coat protein (pCANTAB5E)) [DGI-2-20R-3-D5] | 1.5 OD | 8.5 OD | 1.4 ratio
